These results are taken from the supplement of paper PMC10567573.

B1: KRT13 (parent)
chain: TPGIDLTRVLAEMREQYEAMAERN
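Further: lentivirally expressed fusions sorted by FACS into six bins by GFP to DsRed ratio, PSI derived from sequencing read proportions per bin multiplied by bin number.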

In this data set the parent is B1. In words: protein stability index of a GFP-peptide fusion (GPS, HEK-293T) (PSI 1-6); higher = more stable. As to conditions: c terminus: a fixed tail appended.
In the case of TPGIDLWRVLAEMREQYEAMAERN [T7W], the protein stability index was 3.28.

For TPGIDLNRVLAEMREQYEAMAERN [T7N], the protein stability index was found to be 3.92.

Regarding TPGIDLKRVLAEMREQYEAMAERN [T7K], the protein stability index was determined as 2.88.

Turning to TCGIDLTRVLAEMREQYEAMAERN [P2C], the protein stability index was 3.36.

Take TDGIDLTRVLAEMREQYEAMAERN [P2D]: the protein stability index was 3.69.

Regarding TLGIDLTRVLAEMREQYEAMAERN [P2L], the protein stability index amounted to 2.86.

In the case of TVGIDLTRVLAEMREQYEAMAERN [P2V], the protein stability index was determined as 2.6.

With TWGIDLTRVLAEMREQYEAMAERN [P2W], the protein stability index is 3.75.

Take TKGIDLTRVLAEMREQYEAMAERN [P2K]: the protein stability index turned out to be 3.79.

For TTGIDLTRVLAEMREQYEAMAERN [P2T], the protein stability index is 3.81.

For TSGIDLTRVLAEMREQYEAMAERN [P2S], the protein stability index was 3.9.

As to TAGIDLTRVLAEMREQYEAMAERN [P2A], the protein stability index was determined as 4.17.

Regarding TNGIDLTRVLAEMREQYEAMAERN [P2N], the protein stability index stood at 4.05.

Take TMGIDLTRVLAEMREQYEAMAERN [P2M]: the protein stability index was 2.97.

With TFGIDLTRVLAEMREQYEAMAERN [P2F], the protein stability index came out at 2.79.

Take TEGIDLTRVLAEMREQYEAMAERN [P2E]: the protein stability index was found to be 3.16.

Take TYGIDLTRVLAEMREQYEAMAERN [P2Y]: the protein stability index is 3.69.

For the variant THGIDLTRVLAEMREQYEAMAERN [P2H], the protein stability index is 4.41.

For TIGIDLTRVLAEMREQYEAMAERN [P2I], the protein stability index is 2.54.

Take TPGIDSTRVLAEMREQYEAMAERN [L6S]: the protein stability index amounted to 5.29.

Regarding TPGIDVTRVLAEMREQYEAMAERN [L6V], the protein stability index came out at 3.88.

Regarding TPGIDGTRVLAEMREQYEAMAERN [L6G], the protein stability index is 4.98.

With TPGIDETRVLAEMREQYEAMAERN [L6E], the protein stability index stood at 4.69.

As to TPGIDDTRVLAEMREQYEAMAERN [L6D], the protein stability index came to 3.84.

On to TPGIDKTRVLAEMREQYEAMAERN [L6K], for which the protein stability index stood at 4.7.

TPGIDCTRVLAEMREQYEAMAERN [L6C]: the protein stability index was 4.79.

As for TPGIDNTRVLAEMREQYEAMAERN [L6N], the protein stability index turned out to be 5.14.

For the variant TPGIDRTRVLAEMREQYEAMAERN [L6R], the protein stability index was found to be 4.84.

Regarding TPGIDITRVLAEMREQYEAMAERN [L6I], the protein stability index was 4.13.

Consider TPGIDFTRVLAEMREQYEAMAERN [L6F], for which the protein stability index was 3.98.

As for TPGIDHTRVLAEMREQYEAMAERN [L6H], the protein stability index came to 3.99.

On to TPGIDATRVLAEMREQYEAMAERN [L6A], for which the protein stability index is 4.15.

On to TPGIDQTRVLAEMREQYEAMAERN [L6Q], for which the protein stability index was found to be 5.01.

Regarding TPGIDWTRVLAEMREQYEAMAERN [L6W], the protein stability index turned out to be 3.09.

With TPGIDYTRVLAEMREQYEAMAERN [L6Y], the protein stability index came out at 3.37.

Take TPGIDTTRVLAEMREQYEAMAERN [L6T]: the protein stability index turned out to be 5.4.

On to TPGITLTRVLAEMREQYEAMAERN [D5T], for which the protein stability index came to 3.68.

In the case of TPGINLTRVLAEMREQYEAMAERN [D5N], the protein stability index amounted to 3.88.

On to TPGIELTRVLAEMREQYEAMAERN [D5E], for which the protein stability index turned out to be 4.54.

For the variant TPGIPLTRVLAEMREQYEAMAERN [D5P], the protein stability index stood at 4.69.

Consider TPGIKLTRVLAEMREQYEAMAERN [D5K], for which the protein stability index was found to be 2.21.

Consider TPGIMLTRVLAEMREQYEAMAERN [D5M], for which the protein stability index amounted to 3.81.

Consider TPGIILTRVLAEMREQYEAMAERN [D5I], for which the protein stability index came out at 2.66.

Turning to TPGIALTRVLAEMREQYEAMAERN [D5A], the protein stability index amounted to 5.15.

In the case of TPGIWLTRVLAEMREQYEAMAERN [D5W], the protein stability index came out at 1.72.

For the variant TPGIHLTRVLAEMREQYEAMAERN [D5H], the protein stability index is 4.29.

For TPGIVLTRVLAEMREQYEAMAERN [D5V], the protein stability index turned out to be 2.63.

Consider TPGISLTRVLAEMREQYEAMAERN [D5S], for which the protein stability index was 3.86.

As for TPGIGLTRVLAEMREQYEAMAERN [D5G], the protein stability index was found to be 1.58.

In the case of TPGICLTRVLAEMREQYEAMAERN [D5C], the protein stability index worked out at 2.73.

For TPGIFLTRVLAEMREQYEAMAERN [D5F], the protein stability index stood at 2.19.

Take TPGIQLTRVLAEMREQYEAMAERN [D5Q]: the protein stability index is 3.8.

As for MPGIDLTRVLAEMREQYEAMAERN [T1M], the protein stability index was 3.9.

Take FPGIDLTRVLAEMREQYEAMAERN [T1F]: the protein stability index was found to be 3.27.

As for LPGIDLTRVLAEMREQYEAMAERN [T1L], the protein stability index was 2.71.

Take EPGIDLTRVLAEMREQYEAMAERN [T1E]: the protein stability index amounted to 4.3.

In the case of VPGIDLTRVLAEMREQYEAMAERN [T1V], the protein stability index is 2.67.

In the case of YPGIDLTRVLAEMREQYEAMAERN [T1Y], the protein stability index was found to be 4.34.

IPGIDLTRVLAEMREQYEAMAERN [T1I]: the protein stability index is 4.36.

As for DPGIDLTRVLAEMREQYEAMAERN [T1D], the protein stability index came out at 3.47.

As to GPGIDLTRVLAEMREQYEAMAERN [T1G], the protein stability index is 4.59.

As to HPGIDLTRVLAEMREQYEAMAERN [T1H], the protein stability index was determined as 4.28.

For the variant PPGIDLTRVLAEMREQYEAMAERN [T1P], the protein stability index is 4.16.

Take WPGIDLTRVLAEMREQYEAMAERN [T1W]: the protein stability index stood at 3.5.

On to QPGIDLTRVLAEMREQYEAMAERN [T1Q], for which the protein stability index came out at 3.13.

On to KPGIDLTRVLAEMREQYEAMAERN [T1K], for which the protein stability index is 3.85.

Regarding NPGIDLTRVLAEMREQYEAMAERN [T1N], the protein stability index was 4.26.

With CPGIDLTRVLAEMREQYEAMAERN [T1C], the protein stability index was 3.45.

Regarding SPGIDLTRVLAEMREQYEAMAERN [T1S], the protein stability index stood at 3.49.

Take TPGIDLTHVLAEMREQYEAMAERN [R8H]: the protein stability index is 4.05.

Regarding TPGIDLTNVLAEMREQYEAMAERN [R8N], the protein stability index was 4.11.

In the case of TPGIDLTDVLAEMREQYEAMAERN [R8D], the protein stability index was 2.73.

Take TPGIDLTIVLAEMREQYEAMAERN [R8I]: the protein stability index turned out to be 3.08.

On to TPGIDLTKVLAEMREQYEAMAERN [R8K], for which the protein stability index is 4.69.

As for TPGIDLTMVLAEMREQYEAMAERN [R8M], the protein stability index amounted to 4.01.

In the case of TPGIDLTLVLAEMREQYEAMAERN [R8L], the protein stability index was 2.64.

For TPGIDLTPVLAEMREQYEAMAERN [R8P], the protein stability index came to 3.61.

Take TPGIDLTQVLAEMREQYEAMAERN [R8Q]: the protein stability index was found to be 4.15.

Turning to TPGIDLTWVLAEMREQYEAMAERN [R8W], the protein stability index is 3.25.

For the variant TPGIDLTFVLAEMREQYEAMAERN [R8F], the protein stability index is 3.13.

As to TPGIDLTAVLAEMREQYEAMAERN [R8A], the protein stability index was 4.26.

For the variant TPGPDLTRVLAEMREQYEAMAERN [I4P], the protein stability index is 4.39.

As to TPGQDLTRVLAEMREQYEAMAERN [I4Q], the protein stability index stood at 3.72.

For the variant TPGADLTRVLAEMREQYEAMAERN [I4A], the protein stability index stood at 3.97.

For TPGFDLTRVLAEMREQYEAMAERN [I4F], the protein stability index amounted to 3.63.

For TPGSDLTRVLAEMREQYEAMAERN [I4S], the protein stability index stood at 4.48.

Consider TPGKDLTRVLAEMREQYEAMAERN [I4K], for which the protein stability index worked out at 3.45.

As to TPGVDLTRVLAEMREQYEAMAERN [I4V], the protein stability index was found to be 3.8.

Turning to TPGTDLTRVLAEMREQYEAMAERN [I4T], the protein stability index was 3.31.

For the variant TPGYDLTRVLAEMREQYEAMAERN [I4Y], the protein stability index was determined as 3.75.

In the case of TPGRDLTRVLAEMREQYEAMAERN [I4R], the protein stability index turned out to be 4.14.

On to TPGCDLTRVLAEMREQYEAMAERN [I4C], for which the protein stability index came to 4.87.

Take TPGHDLTRVLAEMREQYEAMAERN [I4H]: the protein stability index turned out to be 4.85.

For the variant TPGNDLTRVLAEMREQYEAMAERN [I4N], the protein stability index was determined as 2.62.
